{"source": "the nanobody polyreactivity screen of Harvey et al. (2022)", "data": [{"experiment": "yeast display, Sf9 membrane polyspecificity reagent, FACS + sequencing; frameworks hold sequencing errors", "outline": "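A synthetic nanobody library was expressed on Saccharomyces cerevisiae BJ5465 by galactose induction for 36–48 hours. The library was stained for 1 hour at 4 °C with 10% biotinylated, detergent-solubilized Sf9 membrane reagent and enriched with streptavidin microbeads before FACS. Low and high (top ~1%) gates were set on anti-HA fluorescence for expression and streptavidin fluorescence for reagent binding, and each polyreactivity label reflects the gate of origin.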", "values": [{"sequence": "QVQLVESGGGLVQAGGSHRLSCAASGRTFYQNAMGWYRQAPGKERELVATISQRGGSTYYADSVKGRFTISRDTAKNTVYLQMNSLKPEDTAVYYCAKGRYAYSIWDDYWGQGTQVTVSS", "polyreactivity (PSR sort gate)": "low polyreactivity"}, {"sequence": "QVQLVESGGGLVQAGGSLRLSCAASGRIFARYAMGWYRQAPGKQRELVAAITVSGDNTYYADSVKGRFTISRDNAKNTVYLQMNSLKPEDTAVYYCAVRAVLLFGFFDYDYWGQGTQLTVSS", "polyreactivity (PSR sort gate)": "low polyreactivity"}, {"sequence": "QVQLVESGGGLVQAGGSLRLRCAASGSTFGRYAKVWYRQAPGKEREFVAAISWSGGSTYYADSVKGRFTISRDNAKNTVYLQMNSLKPEDTAVYYCARYSWRGLAEFDSWGQGTQVTVSS", "polyreactivity (PSR sort gate)": "low polyreactivity"}, {"sequence": "QVQLVESGGVLVQAGGSLRISCAASGSIFGSYAMGWYRQAPGKEREFVAAIRRSSASTYYADSVKGRFTISRDNAKNTVYLQMYSLKPEDTAVYYCATQCYCYYGYRYRYAAYDYRGQGTQVTVSS", "polyreactivity (PSR sort gate)": "high polyreactivity"}, {"sequence": "QVQLVESGGGLVQAGGSLRLSSAASGITFRGSAMGWYRQAPGKERELVASITNTDSTYYADSVKGRFTISRDNAKHTVYLQMNSLKPEDTAVYYCAARRGRKYGYWGQGTQVTVSS", "polyreactivity (PSR sort gate)": "high polyreactivity"}, {"sequence": "QVQLVESGGGLVQAGGSLRLSCAASGRTFLKNAMGWYRQAPGKERELVAAITSGGSTNYADSVKGRFTISRDNAKNTVYLQMNSLKPEDTAVYYCNAPSYWYYPVLGSFLTFDYWGQGTQVTVSS", "polyreactivity (PSR sort gate)": "low polyreactivity"}, {"sequence": "QVQLVESGGGLVQAGGILRLSCAASGRTFRIYAMGRYRPAPAKVREFVAGITRSDGSTYYADSVKGRFTISRDNAKNTVSFQMNSLKPVDTEVYYCYVEPYSHYRRTEDYWGQGTEVTVSS", "polyreactivity (PSR sort gate)": "high polyreactivity"}, {"sequence": "QVQLVESGVGLVQAGGSLRLSCAASGRIFIDYAMGWYRQAPGKERELVATISESGGSTYYADSVKGRFTISRDNAKNTVYLQMNSLKPEDTAVYYCAVDDRYGTVYFYTKFDYWGQGTQVTVSS", "polyreactivity (PSR sort gate)": "low polyreactivity"}, {"sequence": "QVQLVESGGGLVQAGGSLRLSCAASGRNFYYNAMGWYRQAPGKERELVAVISGRGGSTYYADSVKGRFTISRDNAKNTVYLQMNSLKPEDTAVYYCAAGYTRPWRFTYYYWGQGTQVTVSS", "polyreactivity (PSR sort gate)": "high polyreactivity"}, {"sequence": "QVQLVESGGGLVQAGGSLRLSCAATGRTLKYNAMGRYRKAPGKERELVAAISYSGSSTYYADSVKGRFTISRDNAKNTVYLQMHSLKPEDTAVYYCNTARPTAAYDYWGQGTQVTVSS", "polyreactivity (PSR sort gate)": "low polyreactivity"}, {"sequence": "QVQLVESGGGLVQAGGSLRLSCAASGRTFFANAMGWYRQAPGKERELVAAISGSGDRTYYADSVKGRFTISRDNAKNTVYLQMNSLKPEDTAVYYCAAAGWSARGYNYWGQGTQVTVSS", "polyreactivity (PSR sort gate)": "high polyreactivity"}, {"sequence": "QVQLVESGGGLVQAGGSLRLSCAASGRIFPTYTMGWYRQAPGKERELVAHINRGGGSTYYADSVKGRFTISRDNAKYTVYLQMNSLKPEDTAVYYCAVDTYAYRGVSYWSERTYYYWGQGTQVTVSS", "polyreactivity (PSR sort gate)": "low polyreactivity"}, {"sequence": "QVQLVESGGGLVQAGGSLRVSCAASGSIFQYYGMGWYRQAPGKERELVAAISRGGSTNYADSVKGRFTISRDYAKNTGYLQMNSLKPEDTAVYYCNARTYRKAYSGYNYWGQGTQVTVSS", "polyreactivity (PSR sort gate)": "high polyreactivity"}, {"sequence": "QDQLVESGGGFVQAGGSLRLSCEASGSIFNYYAMGCSRQAPGKERELVAAITTSGGNTYYADSVKGRFTISRDNAKNTVYLQMNSLKPEDTAVYYCAADYWASGGEYDYWGQGTQVTVSS", "polyreactivity (PSR sort gate)": "low polyreactivity"}, {"sequence": "QVQLVESGGGLVQAGGSLRLSCAASGGIFRPYAMGWYRQAPGKERELVAAITYNGGSTYYADSVKGRFTISRDNAKNTVYLQMNSLKPEDTAVYYCAAVSYSGPYAYEYWGQGTQVTVSS", "polyreactivity (PSR sort gate)": "high polyreactivity"}, {"sequence": "QVQLVESGGGLVQAGGSLRLSCAASGNTLAYYVMGWYRQAPGKERELVAAITSGGTTNYADSVKGRFTISRDNAKNTVYLQMNSLNPEDTAVYYCAGCPSKRPPWLRQGGYDYWGQGTQVTVSS", "polyreactivity (PSR sort gate)": "low polyreactivity"}, {"sequence": "QVQLVESGGGLVQAGGSLRLSCAASGRTFAAYTMGWYSQAPGKERELVAAIRRSGSSTYYADSVKGRFTISRDNAKNTVYLQMNSLKPEDTAVYYCARVGRFTGGGYWGQGTQVTVSS", "polyreactivity (PSR sort gate)": "high polyreactivity"}]}]}
